Results published in patent US10617757B2, “Methods for treating multiple myeloma” (The Regents of the University of California, priority 2014, dated 2020).

Tested on: licensed KIR3DL1+ NK cells
Assay: NK cell degranulation (CD107α staining, flow cytometry) stimulated by patient-derived myeloma target cells
Format: cell-based, human
Details: presence vs absence of SAR650984; myeloma target cells expressing HLA-Bw4-I80 ligand; FIG. 8
Method: The functional capacity of a patient's NK cells stimulated by pre-treatment patient-derived myeloma target cells was assessed in response to SAR650984, using flow cytometry (FIG. 8).

**Q.** How did the “Degranulation as measured by CD107α staining (surrogate marker for cytotoxicity)” value turn out when “SAR650984: a humanized anti-CD38 antibody; comprises VH and VL CDR sequences set forth in SEQ ID NOs:1-6” was run?
**A.** Its value is “greatly enhanced degranulation”.
